Each block holds one molecule with its values, some of them ahead of it. Where no end group is shown, it is not given here.
Columns and labels:
[1] = target: Ars2 68-183,206-531 (S. pombe) (UniProt O94326); test: SEC-MALS; Ars2 68-183,206-531, the dimer peak of the size exclusion chromatography
[2] = target: His-MBP-Red1 452-524 (S. pombe) (UniProt Q9UTR8); test: SEC-MALS; His-MBP-Red1 452-524, the dimer peak, injected at 9 mg/ml; stayed dimeric on reinjection
[3] = target: Strep-Iss10 1-45 (S. pombe); test: SEC-MALS; co-purified Red1 192-236 / Iss10 1-45 complex on Superdex 200 10/300 GL, 4 °C, 20 mM Tris-HCl pH 8, 100 mM NaCl, 5 mM β-mercaptoethanol
[4] = target: full-length (FL) His-MBP-Ars2 (S. pombe) (UniProt O94326); test: ITC; 25 °C, 0.4-0.8 mM Red1 injected into 30-40 µM Ars2, 20 mM Tris pH 8.0, 200 mM NaCl, one-site model
[5] = target: T1, full-length (FL) His-MBP-Ars2 (S. pombe, UniProt O94326 1-609); test: ITC; 200 mM NaCl
T1 chain: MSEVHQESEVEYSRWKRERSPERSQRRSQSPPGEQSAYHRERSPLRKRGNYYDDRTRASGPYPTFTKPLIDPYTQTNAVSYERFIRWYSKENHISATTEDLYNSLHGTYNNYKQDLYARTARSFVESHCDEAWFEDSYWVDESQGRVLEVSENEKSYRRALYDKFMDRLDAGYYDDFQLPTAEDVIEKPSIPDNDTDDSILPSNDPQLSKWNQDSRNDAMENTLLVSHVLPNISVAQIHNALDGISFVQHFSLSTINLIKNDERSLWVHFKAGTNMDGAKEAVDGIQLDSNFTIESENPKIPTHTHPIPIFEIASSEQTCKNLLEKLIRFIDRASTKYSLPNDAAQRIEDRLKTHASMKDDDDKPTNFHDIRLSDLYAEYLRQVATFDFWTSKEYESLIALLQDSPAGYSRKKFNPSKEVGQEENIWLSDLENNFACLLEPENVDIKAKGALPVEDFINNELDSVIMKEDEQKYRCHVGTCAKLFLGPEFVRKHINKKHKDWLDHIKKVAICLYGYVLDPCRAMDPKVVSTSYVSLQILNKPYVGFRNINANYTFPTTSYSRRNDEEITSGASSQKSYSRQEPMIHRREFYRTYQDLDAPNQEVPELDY

[6] = target: T2, His-GST-tagged human ARS2 147-871 (human, UniProt Q9BXP5 147-871); test: pull-down; MBP pull-down: Ni-purified His-MBP-peptide held on amylose resin, His-GST-ARS2 added; 20 mM Tris pH 8, 100 mM NaCl; eluted with 10 mM maltose; conditions: both partners purified
T2 construct: ARS2 (SRRT), human, residues 147-871; vector pETM30; also called hARS2^147–871; His-GST-ARS2; source: E. coli BL21Star (DE3), purified (Ni^2+ chelating Sepharose)
T2 sequence (looked up): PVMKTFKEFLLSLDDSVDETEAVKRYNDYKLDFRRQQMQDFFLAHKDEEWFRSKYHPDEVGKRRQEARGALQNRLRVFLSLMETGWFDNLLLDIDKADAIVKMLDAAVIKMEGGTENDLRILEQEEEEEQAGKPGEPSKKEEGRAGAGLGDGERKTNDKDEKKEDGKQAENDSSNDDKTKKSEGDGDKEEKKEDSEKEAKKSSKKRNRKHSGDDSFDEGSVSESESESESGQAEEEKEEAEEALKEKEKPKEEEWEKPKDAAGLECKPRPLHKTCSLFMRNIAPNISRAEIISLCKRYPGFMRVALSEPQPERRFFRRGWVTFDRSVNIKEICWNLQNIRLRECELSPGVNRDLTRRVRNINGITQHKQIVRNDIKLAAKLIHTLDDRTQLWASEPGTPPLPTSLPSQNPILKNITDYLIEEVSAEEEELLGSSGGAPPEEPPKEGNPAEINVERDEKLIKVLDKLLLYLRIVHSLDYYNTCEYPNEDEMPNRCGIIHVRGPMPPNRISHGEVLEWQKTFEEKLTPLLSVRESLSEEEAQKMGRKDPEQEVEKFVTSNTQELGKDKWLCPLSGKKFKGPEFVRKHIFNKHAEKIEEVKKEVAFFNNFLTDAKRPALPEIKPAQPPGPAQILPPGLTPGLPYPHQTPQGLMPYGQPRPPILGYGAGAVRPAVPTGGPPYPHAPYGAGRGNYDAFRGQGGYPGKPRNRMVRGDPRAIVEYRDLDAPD

[7] = target: T3, Ars2 (58-609) (Schizosaccharomyces pombe); test: ITC; 200 mM NaCl
T3 chain: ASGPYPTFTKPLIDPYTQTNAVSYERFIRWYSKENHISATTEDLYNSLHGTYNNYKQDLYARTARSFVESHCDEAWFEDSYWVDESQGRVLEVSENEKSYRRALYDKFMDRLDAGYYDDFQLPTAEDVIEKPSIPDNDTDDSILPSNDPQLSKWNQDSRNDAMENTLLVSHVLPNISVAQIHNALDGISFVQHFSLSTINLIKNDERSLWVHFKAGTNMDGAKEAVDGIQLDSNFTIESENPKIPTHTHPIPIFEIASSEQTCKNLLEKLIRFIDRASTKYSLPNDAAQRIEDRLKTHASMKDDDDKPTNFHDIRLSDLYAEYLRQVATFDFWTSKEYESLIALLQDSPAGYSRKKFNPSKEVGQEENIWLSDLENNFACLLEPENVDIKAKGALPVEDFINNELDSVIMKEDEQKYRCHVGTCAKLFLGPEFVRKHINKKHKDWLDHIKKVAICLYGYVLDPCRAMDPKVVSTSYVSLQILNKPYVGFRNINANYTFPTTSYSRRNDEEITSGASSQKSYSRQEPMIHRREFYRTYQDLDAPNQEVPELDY

[8] = target: T4, full-length (FL) His-MBP-Ars2 (S. pombe, UniProt O94326 1-609); test: ITC; 25 °C, 0.4-0.8 mM Red1 injected into 30-40 µM Ars2, 20 mM Tris pH 8.0, 200 mM NaCl, one-site model; conditions: both partners purified
T4 construct: Ars2, S. pombe, 609 residues; the tags are named on the protein for the gel filtration; also called FL Ars2; full-length Ars2; source: E. coli, expressed as MBP fusion, purified (amylose resin, Superdex 200)
T4 sequence (looked up): T1 chain

[9] = target: T5, Strep-Ars2 107-527 (S. pombe, UniProt O94326 107-527); test: as above; conditions: both partners purified
T5 construct: vector pETM41; source: E. coli BL21Star (DE3), purified (Ni^2+ chelating Sepharose); not shown: Strep-tag, C-terminal, kept
T5 sequence (looked up): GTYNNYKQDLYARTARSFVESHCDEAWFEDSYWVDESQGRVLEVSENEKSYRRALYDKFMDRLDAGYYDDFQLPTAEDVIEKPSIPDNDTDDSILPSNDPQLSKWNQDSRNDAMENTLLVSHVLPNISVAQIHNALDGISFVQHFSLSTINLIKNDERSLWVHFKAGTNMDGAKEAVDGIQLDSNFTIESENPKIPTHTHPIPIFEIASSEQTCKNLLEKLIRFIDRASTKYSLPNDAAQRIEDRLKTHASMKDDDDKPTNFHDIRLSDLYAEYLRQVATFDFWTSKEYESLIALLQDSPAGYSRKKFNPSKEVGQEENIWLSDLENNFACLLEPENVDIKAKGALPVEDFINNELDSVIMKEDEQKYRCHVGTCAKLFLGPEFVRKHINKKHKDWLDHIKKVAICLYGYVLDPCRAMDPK

[10] = target: T5, Strep-Ars2 107-527; test: ITC; 25 °C, 0.4-0.8 mM Red1 injected into 30-40 µM Ars2, 20 mM Tris pH 8.0, 100 mM NaCl, one-site model; conditions: both partners purified

stoichiometry N [1]: 2
Molecule: Ars2 68-183,206-531 (from UniProt O94326 68-183; O94326 206-531) (domain or fragment)

stoichiometry N [2]: 2
Molecule: His-MBP-Red1 452-524 (from UniProt Q9UTR8 452-524) (domain or fragment)

stoichiometry N [3]: 1
Molecule: TTNQKEAEKAVSQLFEVGVRFNDFIAEGIEPSVVHTLFLKLGLDS (domain or fragment) [Red1 192-236, His-MBP tag cleaved]

Kd [4]: 5 µM | Kd [5]: 5.6 µM
B1: His-MBP-Red1 1-54 (domain or fragment)
chain: MSRSINLDELRKKALESKKKNEEDESNDSDKEDGEISEDDPVIDQSNSVPPMKV

binding result [6]: binds
B2: His-MBP-ZFC3H1 12-33 I27L (domain or fragment, human, UniProt O60293 12-33, looked up)
chain: SGLSPKEEGELEDGELSDDDNN
notes: ZFC3H1, human, residues 12-33; source: E. coli BL21Star (DE3), purified (Ni^2+ chelating Sepharose)

Kd [7]: 4.4 µM
Molecule: KNEEDESNDSDKEDGEISEDD (not fully specified)

Kd [8]: ~5 µM
B3: Red1 peptide 20-40 (peptide)
peptide: KNEEDESNDSDKEDGEISEDD
notes: Red1, S. pombe, residues 20-40 with the EDGEI motif; also called Red1^20–40 peptide; Red1 N-terminal peptide; source: synthetic peptide (PSL GMBH)

binding result [6]: binds
B4: His-MBP-ZFC3H1 20-31 (domain or fragment, human, UniProt O60293 20-31, looked up)
chain: GELEDGEISDDD
notes: ZFC3H1, human, residues 20-31 (12 residues); source: E. coli BL21Star (DE3), purified (Ni^2+ chelating Sepharose)

Kd [9]: 5 µM | Kd [8]: ~5 µM | binding result [6]: binds | Kd [10]: 0.8 µM
B5: His-MBP-Red1 20-40 (domain or fragment, S. pombe)
chain: KNEEDESNDSDKEDGEISEDD
notes: Red1, S. pombe, residues 20-40 with the EDGEI motif; vector pETM41; also called MBP-Red1 EDGEI motif-containing peptide; source: E. coli BL21Star (DE3), purified (Ni^2+ chelating Sepharose or amylose resin, Superdex 200)

binding result [6]: binds
B6: His-MBP-tagged ZFC3H1 12-33 (domain or fragment, human, UniProt O60293 12-33, looked up)
chain: SGLSPKEEGELEDGEISDDDNN
notes: ZFC3H1, human, 1989 residues, residues 12-33 with the EDGEI motif; vector pETM41; also called MBP-ZFC3H1; hZFC3H1; source: E. coli BL21Star (DE3), purified (Ni^2+ chelating Sepharose)
